Target: T1, FLPo (codon-optimized FLPe recombinase) (UniProt P03870)
T1 sequence: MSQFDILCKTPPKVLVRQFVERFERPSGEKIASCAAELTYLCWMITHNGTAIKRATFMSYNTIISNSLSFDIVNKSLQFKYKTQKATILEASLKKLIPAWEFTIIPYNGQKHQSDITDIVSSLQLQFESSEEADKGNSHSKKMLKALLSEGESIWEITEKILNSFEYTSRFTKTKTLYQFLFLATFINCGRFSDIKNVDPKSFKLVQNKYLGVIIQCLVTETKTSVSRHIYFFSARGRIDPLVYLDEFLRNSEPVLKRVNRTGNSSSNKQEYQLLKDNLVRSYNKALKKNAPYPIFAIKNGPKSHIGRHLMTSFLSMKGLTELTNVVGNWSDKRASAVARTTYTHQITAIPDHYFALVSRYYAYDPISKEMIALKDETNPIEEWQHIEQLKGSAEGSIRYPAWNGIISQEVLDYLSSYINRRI
Assay: cell_activity

Substance: FRT (FLP recognition site) in ROSA26 PLAP reporter
- activity (% of hygroR colonies recombined) (stable integration, 7 of 14 colonies): 50
- activity (transient, mouse FLP reporter ES cells, 10 ug circular plasmid, 5 days, value stated as nearly 75%, nearly 20-fold over FLPe): 75%
